Test results: patent publication US20250276018A1 (AFFYIMMUNE THERAPEUTICS, published 2025)
Read-outs that look alike come from different tables or passages of the source.

What was measured:
[1] = target: T1, c-MET on human target cells (human, UniProt P08581 25-1390); assay: cell-based or functional assay
[2] = target: T1, c-MET on human target cells; assay: cell-based or functional assay; remark: listed apart in the source
[3] = target: T1, c-MET on human target cells; assay: cell-based or functional assay; remark: listed apart in the source
[4] = target: T2, AF647 labeled c-met protein (UniProt P08581 25-932, limits assumed, labeled with AlexaFluor 647 (AF647)); assay: flow cytometry, AF647-labeled c-met protein titrated on CAR-T cells (Round 2)
T2 construct: Soluble labeled c-met protein titrated on CAR-T cells
T2 sequence (P08581 25-932 limits assumed): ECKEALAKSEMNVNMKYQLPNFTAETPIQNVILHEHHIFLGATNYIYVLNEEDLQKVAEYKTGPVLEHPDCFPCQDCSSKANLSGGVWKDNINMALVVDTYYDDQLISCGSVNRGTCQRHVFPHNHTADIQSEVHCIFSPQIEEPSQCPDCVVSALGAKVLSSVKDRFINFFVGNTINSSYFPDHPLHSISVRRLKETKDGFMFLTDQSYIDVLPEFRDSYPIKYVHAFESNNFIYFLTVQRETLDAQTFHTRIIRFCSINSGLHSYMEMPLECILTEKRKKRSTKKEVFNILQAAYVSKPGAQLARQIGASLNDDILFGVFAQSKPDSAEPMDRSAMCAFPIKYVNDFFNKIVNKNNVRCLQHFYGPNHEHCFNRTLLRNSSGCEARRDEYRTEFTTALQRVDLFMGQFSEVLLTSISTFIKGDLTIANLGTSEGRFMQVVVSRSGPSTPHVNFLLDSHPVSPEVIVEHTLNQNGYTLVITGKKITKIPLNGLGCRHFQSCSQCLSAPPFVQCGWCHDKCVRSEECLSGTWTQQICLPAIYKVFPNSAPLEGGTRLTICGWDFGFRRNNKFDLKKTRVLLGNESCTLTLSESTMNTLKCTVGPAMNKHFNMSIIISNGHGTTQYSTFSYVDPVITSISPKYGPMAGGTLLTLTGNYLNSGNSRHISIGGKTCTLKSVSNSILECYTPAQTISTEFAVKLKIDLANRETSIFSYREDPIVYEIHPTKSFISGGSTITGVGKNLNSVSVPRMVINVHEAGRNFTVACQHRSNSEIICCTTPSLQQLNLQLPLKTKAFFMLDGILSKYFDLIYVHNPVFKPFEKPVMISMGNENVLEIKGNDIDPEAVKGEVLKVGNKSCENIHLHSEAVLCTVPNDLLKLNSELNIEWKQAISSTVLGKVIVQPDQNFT
Experimental: (§1) Binding of labeled c-MET to CAR-T cells expressing the affinity tuned c-MET scFvs was evaluated by transducing lentivirus anti-c-MET CAR particles into human T cells to form c-MET CAR-T cells incubated with AF647-labeled c-MET. […] Following a 48 hr. incubation at 37° C., the culture media was brought up to […] per well and incubated at 37° C. for 10 days.
(§2) Cells were stained on ice for 30 mins and then washed with PBS. After washing, residually bound protein on CAR T cells were measured on a flow cytometer (Beckman, CytoFLEX®). The resulting binding data was fit using a non-linear regression analysis on GraphPad Prism to calculate half effective dose concentration (EC₅₀) values. The results of this analysis are shown in FIGS. 2-5 and Tables 2-5 below.

[5] = target: T1, c-MET on human target cells; assay: cell-based or functional assay; remark: listed apart in the source
[6] = target: T2, AF647 labeled c-met protein; assay: flow cytometry, AF647-labeled c-met protein titrated on CAR-T cells (Round 1)
Experimental: as §1, §2

[7] = target: T1, c-MET on human target cells; assay: cell-based or functional assay; remark: listed apart in the source
[8] = target: T1, c-MET on human target cells; assay: cell-based or functional assay; remark: listed apart in the source
[9] = target: T1, c-MET on human target cells; assay: cell-based or functional assay; remark: listed apart in the source
[10] = target: T1, c-MET on human target cells; assay: cell-based or functional assay; remark: listed apart in the source
[11] = target: T1, c-MET on human target cells; assay: cell-based or functional assay; remark: listed apart in the source
[12] = target: T1, c-MET on human target cells; assay: cell-based or functional assay; remark: listed apart in the source
[13] = target: T1, c-MET on human target cells; assay: cell-based or functional assay; remark: listed apart in the source
[14] = target: T1, c-MET on human target cells; assay: cell-based or functional assay; remark: listed apart in the source
[15] = target: T1, c-MET on human target cells; assay: cell-based or functional assay; remark: listed apart in the source
[16] = target: T1, c-MET on human target cells; assay: cell-based or functional assay; remark: listed apart in the source
[17] = target: T1, c-MET on human target cells; assay: cell-based or functional assay; remark: listed apart in the source

T1 sequence (P08581 25-1390): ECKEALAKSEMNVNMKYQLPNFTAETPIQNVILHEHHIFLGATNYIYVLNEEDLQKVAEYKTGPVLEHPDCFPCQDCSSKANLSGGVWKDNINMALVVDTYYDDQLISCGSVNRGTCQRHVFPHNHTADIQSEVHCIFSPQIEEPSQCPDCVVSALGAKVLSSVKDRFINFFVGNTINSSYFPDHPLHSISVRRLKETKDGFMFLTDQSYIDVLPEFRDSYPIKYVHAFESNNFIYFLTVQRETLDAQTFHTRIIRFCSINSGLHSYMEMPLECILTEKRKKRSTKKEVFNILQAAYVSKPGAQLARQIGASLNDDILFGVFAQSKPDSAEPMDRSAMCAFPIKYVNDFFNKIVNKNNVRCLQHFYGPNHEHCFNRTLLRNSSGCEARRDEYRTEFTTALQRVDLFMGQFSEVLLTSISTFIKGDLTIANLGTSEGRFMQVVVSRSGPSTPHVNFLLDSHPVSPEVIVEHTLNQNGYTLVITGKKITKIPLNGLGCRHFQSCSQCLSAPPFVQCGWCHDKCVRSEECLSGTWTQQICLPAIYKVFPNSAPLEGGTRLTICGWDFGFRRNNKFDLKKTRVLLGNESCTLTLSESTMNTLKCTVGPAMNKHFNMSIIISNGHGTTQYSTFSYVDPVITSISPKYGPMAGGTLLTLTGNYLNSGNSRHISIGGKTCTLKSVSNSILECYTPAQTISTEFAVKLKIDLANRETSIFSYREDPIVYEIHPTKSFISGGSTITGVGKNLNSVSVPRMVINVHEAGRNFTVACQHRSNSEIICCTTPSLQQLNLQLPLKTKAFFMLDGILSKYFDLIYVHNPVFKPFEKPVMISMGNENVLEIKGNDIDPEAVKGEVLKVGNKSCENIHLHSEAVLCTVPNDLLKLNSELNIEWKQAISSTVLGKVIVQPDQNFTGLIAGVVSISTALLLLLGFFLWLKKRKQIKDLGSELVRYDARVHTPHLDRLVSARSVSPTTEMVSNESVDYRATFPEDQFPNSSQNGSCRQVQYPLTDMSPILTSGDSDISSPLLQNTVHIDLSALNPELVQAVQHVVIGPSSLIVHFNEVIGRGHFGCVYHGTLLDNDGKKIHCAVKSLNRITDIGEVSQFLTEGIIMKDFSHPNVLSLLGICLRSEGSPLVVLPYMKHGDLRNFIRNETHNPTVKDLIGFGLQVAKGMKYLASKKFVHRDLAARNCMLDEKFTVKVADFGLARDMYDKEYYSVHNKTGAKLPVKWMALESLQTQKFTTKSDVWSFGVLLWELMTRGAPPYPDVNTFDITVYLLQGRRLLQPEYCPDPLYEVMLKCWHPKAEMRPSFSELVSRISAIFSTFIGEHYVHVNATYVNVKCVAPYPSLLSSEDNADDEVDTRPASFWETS

B1: Affy7 CAR (control) (other)
chain: GSEQKLISEEDLGSQVQLQQSGPELVRPGASVKMSCRASGYTFTSYWLHWVKQRPGQGLEWIGMIDPSNSDTRFNPNFKDKATLNVDRSSNTAYMLLSSLTSADSAVYYCATYGSYVSPLDYWGQGTSVTVSSGGGGSGGGGSGGGGSDIMMSQSPSSLTVSVGEKVTVSCKSSQSLLYTSSQKNYLAWYQQKPGQSPKLLIYWASTRESGVPDRFTGSGSGTDFTLTITSVKADDLAVYYCQQYYAYPWTFGGGTKLEIKRASTTTPAPRPPTPAPTIASQPLSLRPEACRPAAGGAVHTRGLDFACDFWVLVVVGGVLACYSLLVTVAFIIFWVRSKRSRLLHSDYMNMTPRRPGPTRKHYQPYAPPRDFAAYRSLRVKFSRSADAPAYQQGQNQLYNELNLGRREEYDVLDKRRGRDPEMGGKPRRKNPQEGLYNELQKDKMAEAYSEIGMKGERRRGKGHDGLYQGLSTATKDTYDALHMQALPPR
notes: residues of P2A left at the intracellular C-terminus are not included; also called parent Affy7 CAR-T cells; parental Affy7
[1]
  cytotoxicity, Normal Human Lung Cells, 8 hrs: 14.7
  cytotoxicity, Normal Human Lung Cells, 16 hrs: 33.3
  cytotoxicity, Normal Human Lung Cells, 24 hrs: 50.7
  cytotoxicity, Normal Human Lung Cells, 32 hrs: 57.1
  cytotoxicity, Normal Human Lung Cells, 40 hrs: 59.9
  cytotoxicity, Normal Human Lung Cells, 47 hrs: 56.5
[2]
  percent cytotoxicity, H1993, 24 hrs: 85.6%
  percent cytotoxicity, H1993, 48 hrs: 97.7%
  percent cytotoxicity, H1993, 72 hrs: 99.6%
[3]
  percent cytotoxicity, Hs746T, 24 hrs: 87.1%
  percent cytotoxicity, Hs746T, 48 hrs: 97.6%
  percent cytotoxicity, Hs746T, 72 hrs: 99.2%
[4]
  EC50: 100 nM
[5]
  cytotoxicity, Normal Human Lung Cells, 8 hrs: 31.8
  cytotoxicity, Normal Human Lung Cells, 16 hrs: 35.7
  cytotoxicity, Normal Human Lung Cells, 24 hrs: 43.2
  cytotoxicity, Normal Human Lung Cells, 32 hrs: 55.8
  cytotoxicity, Normal Human Lung Cells, 40 hrs: 67.5
  cytotoxicity, Normal Human Lung Cells, 48 hrs: 76
[6]
  EC50: 50 nM
[7]
  cytotoxicity, Normal Human Kidney Cells, 8 hrs: 12.5
  cytotoxicity, Normal Human Kidney Cells, 16 hrs: 27.2
  cytotoxicity, Normal Human Kidney Cells, 24 hrs: 32.4
  cytotoxicity, Normal Human Kidney Cells, 32 hrs: 36.9
  cytotoxicity, Normal Human Kidney Cells, 40 hrs: 47.4
  cytotoxicity, Normal Human Kidney Cells, 48 hrs: 59
[8]
  percent cytotoxicity, SNU638, 24 hrs: 78.6%
  percent cytotoxicity, SNU638, 48 hrs: 95.9%
  percent cytotoxicity, SNU638, 72 hrs: 99.5%
[9]
  cytotoxicity, Normal Human Colon Cells, 8 hrs: 28.5
  cytotoxicity, Normal Human Colon Cells, 16 hrs: 33.9
  cytotoxicity, Normal Human Colon Cells, 24 hrs: 43.2
  cytotoxicity, Normal Human Colon Cells, 32 hrs: 57
  cytotoxicity, Normal Human Colon Cells, 40 hrs: 69.7
  cytotoxicity, Normal Human Colon Cells, 48 hrs: 79.4
[10]
  cytotoxicity, Normal Human Colon Cells, 8 hrs: 13.8
  cytotoxicity, Normal Human Colon Cells, 16 hrs: 29.3
  cytotoxicity, Normal Human Colon Cells, 24 hrs: 34.9
  cytotoxicity, Normal Human Colon Cells, 32 hrs: 42.8
  cytotoxicity, Normal Human Colon Cells, 40 hrs: 54.1
  cytotoxicity, Normal Human Colon Cells, 48 hrs: 60.1
[11]
  cytotoxicity, Normal Human Liver Cells, 8 hrs: 23.4
  cytotoxicity, Normal Human Liver Cells, 16 hrs: 36.9
  cytotoxicity, Normal Human Liver Cells, 24 hrs: 50.7
  cytotoxicity, Normal Human Liver Cells, 32 hrs: 64
  cytotoxicity, Normal Human Liver Cells, 40 hrs: 71.2
  cytotoxicity, Normal Human Liver Cells, 48 hrs: 73.4
[12]
  cytotoxicity, Normal Human Kidney Cells, 8 hrs: 32.7
  cytotoxicity, Normal Human Kidney Cells, 16 hrs: 43.5
  cytotoxicity, Normal Human Kidney Cells, 24 hrs: 53.8
  cytotoxicity, Normal Human Kidney Cells, 32 hrs: 61.2
  cytotoxicity, Normal Human Kidney Cells, 40 hrs: 70.2
  cytotoxicity, Normal Human Kidney Cells, 48 hrs: 76.5
[13]
  cytotoxicity, Normal Human Liver Cells, 8 hrs: 17.7
  cytotoxicity, Normal Human Liver Cells, 16 hrs: 30.1
  cytotoxicity, Normal Human Liver Cells, 24 hrs: 38.6
  cytotoxicity, Normal Human Liver Cells, 32 hrs: 46.2
  cytotoxicity, Normal Human Liver Cells, 40 hrs: 59.1
  cytotoxicity, Normal Human Liver Cells, 48 hrs: 68.7

B2: Affy6 CAR (control) (other)
chain: GSEQKLISEEDLGSQVQLVQSGAEVKKPGASVKVSCKASGYIFTAYTMHWVRQAPGQGLEWMGWIKPNNGLANYAQKFQGRVTMTRDTSISTAYMELSRLRSDDTAVYYCARSEITTEFDYWGQGTLVTVSSGGGGSGGGGSGGGGSDIVLTQSPDSLAVSLGERATINCKSSESVDSYANSFMHWYQQKPGQPPKLLIYRASTRESGVPDRFSGSGSRTDFTLTISSLQAEDVAVYYCQQSKEDPLTFGGGTKVEIKASTTTPAPRPPTPAPTIASQPLSLRPEACRPAAGGAVHTRGLDFACDFWVLVVVGGVLACYSLLVTVAFIIFWVRSKRSRLLHSDYMNMTPRRPGPTRKHYQPYAPPRDFAAYRSLRVKFSRSADAPAYQQGQNQLYNELNLGRREEYDVLDKRRGRDPEMGGKPRRKNPQEGLYNELQKDKMAEAYSEIGMKGERRRGKGHDGLYQGLSTATKDTYDALHMQALPPR
notes: Chimeric antigen receptor on transduced human T cells; P2A remnant not included; also called parent Affy6 CAR-T cells; parental Affy6
[14]
  cytotoxicity, Normal Human Kidney Cells, 8 hrs: 25.7
  cytotoxicity, Normal Human Kidney Cells, 16 hrs: 45.4
  cytotoxicity, Normal Human Kidney Cells, 24 hrs: 57
  cytotoxicity, Normal Human Kidney Cells, 32 hrs: 65.5
  cytotoxicity, Normal Human Kidney Cells, 40 hrs: 73
  cytotoxicity, Normal Human Kidney Cells, 48 hrs: 78.8
[4]
  EC50: 20 nM
[15]
  cytotoxicity, Normal Human Lung Cells, 8 hrs: 38.4
  cytotoxicity, Normal Human Lung Cells, 16 hrs: 47.1
  cytotoxicity, Normal Human Lung Cells, 24 hrs: 54.7
  cytotoxicity, Normal Human Lung Cells, 32 hrs: 63.1
  cytotoxicity, Normal Human Lung Cells, 40 hrs: 76.4
  cytotoxicity, Normal Human Lung Cells, 48 hrs: 85.2
[6]
  EC50: 20 nM
[16]
  cytotoxicity, Normal Human Liver Cells, 8 hrs: 28.4
  cytotoxicity, Normal Human Liver Cells, 16 hrs: 47.1
  cytotoxicity, Normal Human Liver Cells, 24 hrs: 59
  cytotoxicity, Normal Human Liver Cells, 32 hrs: 67.9
  cytotoxicity, Normal Human Liver Cells, 40 hrs: 76.8
  cytotoxicity, Normal Human Liver Cells, 48 hrs: 83.6
[17]
  cytotoxicity, Normal Human Colon Cells, 8 hrs: 24.6
  cytotoxicity, Normal Human Colon Cells, 16 hrs: 37.7
  cytotoxicity, Normal Human Colon Cells, 24 hrs: 46.4
  cytotoxicity, Normal Human Colon Cells, 32 hrs: 57.3
  cytotoxicity, Normal Human Colon Cells, 40 hrs: 72.3
  cytotoxicity, Normal Human Colon Cells, 48 hrs: 83.8
